Data taken from patent US20250011363A1, “OPTIMIZED SHORTENED PEPTIDE THAT BINDS TO ACETYLCHOLINE RECEPTOR, AND USE THEREOF” (SKINMED CO., LTD., priority 2021, published 2025).

B1: 6mer-2-508 (peptide)
peptide: RVFLKK
B2: 6mer-2-509 (peptide)
peptide: RGFYRK
B3: 6mer-2-510 (peptide)
peptide: KRVLKK
B4: 6mer-2-511 (peptide)
peptide: RVFCRR
B5: 6mer-2-512 (peptide)
peptide: RWFTRR
B6: 6mer-2-513 (peptide)
peptide: RRLTRK
B7: 6mer-2-514 (peptide)
peptide: KGLQKK
B8: 6mer-2-515 (peptide)
peptide: RWYCRK
B9: 6mer-2-516 (peptide)
peptide: RQQQKK
B10: 6mer-2-517 (peptide)
peptide: KLRTKK
B11: 6mer-2-518 (peptide)
peptide: KLVTKK
B12: 6mer-2-519 (peptide)
peptide: KQIQRR
B13: 6mer-2-520 (peptide)
peptide: KSYCKR
B14: 6mer-2-521 (peptide)
peptide: KQYTRK
B15: 6mer-2-522 (peptide)
peptide: RVVLRK
B16: 6mer-2-523 (peptide)
peptide: RGRYKR
B17: 6mer-2-524 (peptide)
peptide: RGIQKR
B18: 6mer-2-525 (peptide)
peptide: KWVRKK
B19: 6mer-2-526 (peptide)
peptide: RVLLRK
B20: 6mer-2-527 (peptide)
peptide: RGQTRR
B21: 6mer-2-528 (peptide)
peptide: KGFRKK
B22: 6mer-2-529 (peptide)
peptide: KQQRKR
B23: 6mer-2-530 (peptide)
peptide: RSYSKR
B24: 6mer-2-531 (peptide)
peptide: KVIYKR
B25: 6mer-2-532 (peptide)
peptide: KSITKR
B26: 6mer-2-533 (peptide)
peptide: KRLLKR
B27: 6mer-2-534 (peptide)
peptide: RVQLRR
B28: 6mer-1-535 (peptide)
peptide: RRVILK
B29: 6mer-1-536 (peptide)
peptide: RRWFRK
B30: 6mer-1-537 (peptide)
peptide: RRGLCK
B31: 6mer-1-538 (peptide)
peptide: RRSQCK
B32: 6mer-1-539 (peptide)
peptide: KRGIRK
B33: 6mer-1-540 (peptide)
peptide: KRVQTR
B34: 6mer-1-541 (peptide)
peptide: RKWFTR
B35: 6mer-1-542 (peptide)
peptide: KRWFRR
B36: 6mer-1-543 (peptide)
peptide: RRSVCK
B37: 6mer-1-544 (peptide)
peptide: KRVICR
B38: 6mer-1-545 (peptide)
peptide: RRSYRK
B39: 6mer-1-546 (peptide)
peptide: RKLVQR
B40: 6mer-1-547 (peptide)
peptide: RKVQQR
B41: 6mer-1-548 (peptide)
peptide: RRVYSR
B42: 6mer-1-549 (peptide)
peptide: KKSYQR
B43: 6mer-1-550 (peptide)
peptide: RRLICR
B44: 6mer-1-551 (peptide)
peptide: KRGRLR
B45: 6mer-1-552 (peptide)
peptide: RKRYRK
B46: 6mer-1-553 (peptide)
peptide: RRGVRK
B47: 6mer-1-554 (peptide)
peptide: KRSVTR
B48: 6mer-1-555 (peptide)
peptide: KKWYLK
B49: 6mer-1-556 (peptide)
peptide: KKGFTK
B50: 6mer-1-557 (peptide)
peptide: KRQVQK
B51: 6mer-1-558 (peptide)
peptide: RRLIQR
B52: 6mer-1-559 (peptide)
peptide: RRRLTK
B53: 6mer-1-560 (peptide)
peptide: RRSFSK
B54: 6mer-1-561 (peptide)
peptide: RKVYLK
B55: 6mer-1-562 (peptide)
peptide: KRSYQR
B56: 6mer-1-563 (peptide)
peptide: RRSFTR
B57: 6mer-1-564 (peptide)
peptide: KRSITK

Target: acetylcholine receptor
Test: SPR, receptor immobilised on chip, peptide at 10 µM

First: B1
Second: B2
The Binding affinity of the first is lower: 121 RU for the first, 136 RU for the second.

Going from B3 to B4, the Binding affinity falls from 146 RU to 126 RU.

Going from B5 to B6, the Binding affinity falls from 148 RU to 121 RU.

First: B7
Second: B8
The Binding affinity of the first is higher: 124 RU for the first, 123 RU for the second.

Going from B9 to B10, the Binding affinity rises from 146 RU to 153 RU.

Going from B11 to B12, the Binding affinity falls from 151 RU to 135 RU.

B13 and B14 are the same in Binding affinity: 144 RU for the first, 144 RU for the second.

First: B15
Second: B16
The Binding affinity of the first is lower: 124 RU for the first, 146 RU for the second.

Going from B17 to B18, the Binding affinity rises from 128 RU to 145 RU.

Going from B19 to B20, the Binding affinity rises from 144 RU to 145 RU.

Going from B21 to B22, the Binding affinity falls from 151 RU to 124 RU.

First: B23
Second: B24
The Binding affinity of the first is lower: 139 RU for the first, 148 RU for the second.

Going from B25 to B26, the Binding affinity falls from 147 RU to 142 RU.

Binder B27 has a Binding affinity of 139 RU.

Target: acetylcholine receptor
Test: SPR, acetylcholine receptor on CM5 chip, peptide at 10 uM

Going from B28 to B29, the Binding affinity (RU) rises from 139 RU to 151 RU.

First: B30
Second: B31
The Binding affinity (RU) of the first is higher: 154 RU for the first, 142 RU for the second.

Compared with B32, B33 is lower in Binding affinity (RU): 148 RU for the first, 128 RU for the second.

Going from B34 to B35, the Binding affinity (RU) falls from 136 RU to 128 RU.

Going from B36 to B37, the Binding affinity (RU) rises from 145 RU to 149 RU.

Going from B38 to B39, the Binding affinity (RU) falls from 127 RU to 123 RU.

Compared with B40, B41 is lower in Binding affinity (RU): 148 RU for the first, 123 RU for the second.

Going from B42 to B43, the Binding affinity (RU) rises from 142 RU to 148 RU.

Compared with B44, B45 is higher in Binding affinity (RU): 142 RU for the first, 144 RU for the second.

Going from B46 to B47, the Binding affinity (RU) rises from 128 RU to 131 RU.

Going from B48 to B49, the Binding affinity (RU) rises from 128 RU to 145 RU.

First: B50
Second: B51
The Binding affinity (RU) of the first is lower: 128 RU for the first, 139 RU for the second.

Going from B52 to B53, the Binding affinity (RU) falls from 139 RU to 127 RU.

Going from B54 to B55, the Binding affinity (RU) rises from 131 RU to 148 RU.

B56 and B57 are the same in Binding affinity (RU): 139 RU for the first, 139 RU for the second.
